In patent US20260285993 (published 2026):
Changes are numbered by the printed parent chain. Each block holds one binder with its values, some of them ahead of it.

Molecular target: T1, cynomolgus PRLR ECD (cynomolgus monkey)
T1 chain: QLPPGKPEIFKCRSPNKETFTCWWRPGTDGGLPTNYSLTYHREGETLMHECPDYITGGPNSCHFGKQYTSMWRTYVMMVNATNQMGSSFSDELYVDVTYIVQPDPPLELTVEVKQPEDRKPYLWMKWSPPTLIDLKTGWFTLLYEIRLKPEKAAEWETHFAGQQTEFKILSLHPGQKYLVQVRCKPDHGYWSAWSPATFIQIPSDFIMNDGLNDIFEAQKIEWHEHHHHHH
Assay: ELISA

binding result: no binding
B1: HP-PR01B01 (antibody, V domains shown)
VH: EVHLVESGPDLVKPSQSLSLTCTVTGYSITSGYNWHWIRQFPGNKLEWMGYIHYSGSTKYDPSLKSRISFTRDTSRNQFFLQLNSVTTEDRATYYCARSEAGGYSWFAYWGQGTLVTVSA
VL: DIVMTQSPAIMSASPGEKVTMACSASSSVNYMHWYQQKSGTSPKRWIYDTSKLASGVPARFSGSGSGTSYSLTISSMEAEDAATYYCQQWSSNPLTFGAGTKLELK

binding result: no binding
B2: H-PR-B06 (antibody, V domains shown)
VH: DVKLVESGGGLVKPGGSLKLACAASGFTFSSYTMSWVRQTPEKRLEWVATISSGGSYTYYPDSVKGRFTISRDNAKNTLYLQLSSLKSEDTAMYYCTRDRYYSTTPDWYFDVWGAGTTVTVSS
VL: DIVLTQSPATLSVTPGDSVSLSCRATQIIFNNLHWYQQKSHESPRLLITYTSQSISGIPSRFSGSGSGTDFTLTINSVETEDFGMYFCQQSNTWPRTFGGGTKLEIK

binding result: no binding
B3: HP-PR02H02 (antibody, V domains shown)
VH: B2 VH with D1E, K3M, V119L
VL: B2 VL with L4I
